This is an account of results in patent US20240294638A1 (LES LABORATOIRES SERVIER, published 2024).

Test [1] concerns the target NKG2A on primary human NK cells (human, UniProt P26715 1-233). The experiment in a line: cell-based or functional assay.
The target of test [2] is T1, I225M (Homo sapiens).
T1 construct: co-expressed on CHO-S cells; also called human NKG2A I225M / human CD94 heterodimer on CHO-S cells
The experiment in a line: flow cytometry, CHO-S cells transiently transfected with NKG2A variant and CD94, AF647 goat anti-human IgG secondary (MFI) [cont.), panel 23765]. How it is done:
(§1) Six anti-human NKG2A antibodies were tested for binding to the different heterodimers expressed. Antibodies were tested for binding to the transfected cells in 3-fold serial dilutions from 1 μg/mL antibody, and 0 μg/ml antibody, and incubated for 30 min at 4° C. Following a washing step, the cells were incubated with a fluorescent goat anti-human IgG (H+L) secondary antibody (A-21445, Invitrogen) for 30 min at 4° C. in the dark. After a second wash, the cells were tested by high throughput flow cytometry (IQue screener, Sartorius). Data were transferred to Excel and graphs were generated using GraphPad Prism® software. A reference antibody analogue and an isotype control were included for comparison.

Test [3] has as its target T2, human NKG2A and human CD94 expressed on transiently transfected CHO-S cells (human, UniProt Q13241 1-179).
T2 construct: whole, on cells; also called human NKG2A/CD94 heterodimer
Described as above. How it is done: as §1

The target of another test is T3, I168S (Homo sapiens).
T3 construct: co-expressed on CHO-S cells; also called human NKG2A I168S / human CD94 heterodimer on CHO-S cells
T3 sequence (P26715 whole entry I168S): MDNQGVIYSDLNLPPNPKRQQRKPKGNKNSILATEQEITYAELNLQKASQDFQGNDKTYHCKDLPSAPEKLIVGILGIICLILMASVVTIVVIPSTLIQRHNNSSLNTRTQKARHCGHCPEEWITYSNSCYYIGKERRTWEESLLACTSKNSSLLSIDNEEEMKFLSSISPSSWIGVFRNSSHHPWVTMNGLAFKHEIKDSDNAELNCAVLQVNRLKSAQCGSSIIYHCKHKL
The test is described as above. As for the experimental part:
as §1

For test [4], the target named is T4, cynomolgus NKG2A and cynomolgus CD94 expressed on transiently transfected CHO-S cells (cynomolgus, UniProt Q68VD2 1-233; Q68VD4 1-179).
T4 construct: whole, on cells
Put plainly: flow cytometry, transiently transfected CHO-S cells, AF647 goat anti-human IgG secondary (MFI) [cont.), panel 23765]. As for the experimental part:
(§2) CHO-S cells were transiently transfected with human NKG2A and human CD94, human NKG2C and human CD94, cynomolgus NKG2A and cynomolgus CD94 or cynomolgus NKG2C and cynomolgus CD94 constructs. Mock transfected CHO-S cells were included in the assay as a negative control. Antibodies were tested for binding to the transfected cells in 3-fold dilutions from 30 μg/mL down to 0.5 ng/ml antibody, and 0 μg/mL antibody, and incubated for 30 min at 4° C. Following a washing step, the cells were incubated with a fluorescent goat anti-human IgG (H+L) secondary antibody (A-21445, Invitrogen) for 30 min at 4° C. in the dark. After a second wash, the cells were tested by high throughput flow cytometry (IQue screener, Sartorius). Data were transferred to Excel and graphs were generated using GraphPad Prism® software.

Test [5] deals with T2, human NKG2A and human CD94 expressed on …. The description is as above. How it is done:
as §2

The target of test [6] is T5, recombinant human NKG2A/CD94 heterodimer (extracellular domains) (human, UniProt Q13241 32-179).
T5 construct: extracellular domain; ECDs co-expressed in Expi293, purified by Ni-NTA and anti-Flag; also called HuNKG2A/huCD94; NKG2A/CD94 ECDs
Put plainly: SPR (IBIS MX96), mAb captured on anti-human IgG Fc, ECD heterodimer injected, 1:1 fit. As for the experimental part:
(§3) Kinetic binding analysis of anti-NKG2A monoclonal antibodies (mAbs) was performed by Surface Plasmon Resonance (SPR) using a Continuous Flow Microspotter (CFM, Wasatch Microfluidics, Salt Lake City, US) combined with an IBIS MX96 SPR instrument (IBIS Technologies, The Netherlands). The extracellular domains (ECDs) of human his-tagged NKG2A, NKG2C and FLAG-tagged CD94 were co-expressed using an Expi293™ expression system and purified by standard Ni-NTA chromatography followed by anti-Flag M2 affinity gel (A2220, Sigma). Binding kinetics were measured by capturing mAbs on a G-a-hu-IgG Fc SensEye® for 15 minutes using the CFM. After spotting, the SensEye® was positioned in the IBIS MX96 biosensor and immobilized mAbs were fixed by SensEye FixIt kit. Kinetic analysis was performed by applying a kinetic titration series injecting increasing concentrations of antigens from 1.6 nM to 400 nM as 2-fold dilutions. After each cycle of antigen injection, the surface was regenerated by 100 mM H₃PO₄, pH 3. Antigen association and dissociation were measured for 15 minutes. The recorded binding responses were fitted to a simple 1:1 binding model with Scrubber 2.0 software for calculation of the on-rate (kₒₙ or kₐ), off-rate (Koff or kd) and affinity (KD) constants. Binding kinetic parameters were measured as an average of three independent measuring points.

Test [7] has as its target T6, recombinant human NKG2C/CD94 heterodimer (extracellular domains) (human, UniProt P26717 94-231; Q13241 32-179).
T6 construct: extracellular domain; also called HuNKG2C/huCD94; NKG2C/CD94 ECDs
The description is as above. As for the experimental part: as §3

Test [8] addresses T2, human NKG2A and human CD94 expressed on …. The experiment in a line: blocking of PE-conjugated HLA-E pentamer binding to transiently transfected CHO-S cells, flow cytometry (percentage binding) [panel A hNKG2A]. How it is done:
(§4) CHO-S cells were transiently transfected with constructs for expression of human NKG2A and human CD94, human NKG2C and human CD94, cynomolgus NKG2A and cynomolgus CD94, or cynomolgus NKG2C and cynomolgus CD94. Mock transfected CHO-S cells were included in the assay as negative control. A PE-conjugated HLA-E pentamer was tested for binding to the heterodimers in the presence of anti-human NKG2A antibodies in 3-fold serial dilutions from 10 μg/mL down to 14 ng/mL antibody, and 0 μg/mL antibody. The antibodies were allowed to bind for 30 min at 4° C. prior to the addition of the HLA-E pentamer in a 1:50 dilution. The fluorescence intensity of HLA-E binding to the transfected cells was measured by high throughput flow cytometry (IQue screener, Sartorius). Data were transferred to Excel and graphs were generated using GraphPad Prism® software.

Test [9] shares this target. Put plainly: flow cytometry, transiently transfected CHO-S cells, AF647 goat anti-human IgG secondary (MFI) [cont.), panel 24135]. How it is done: as §2
Another test addresses T7, CD94 homodimer (human, UniProt Q13241 32-179, limits assumed).
T7 sequence (looked up): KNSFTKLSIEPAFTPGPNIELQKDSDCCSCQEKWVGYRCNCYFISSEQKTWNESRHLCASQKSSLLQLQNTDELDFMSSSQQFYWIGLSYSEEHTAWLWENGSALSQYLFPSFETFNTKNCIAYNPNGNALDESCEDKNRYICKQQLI
Put plainly: SPR. How it is done:
as §3
The binding affinities and kinetic parameters of the anti-NKG2A mAbs binding to NKG2A/CD94 and NKG2C/CD94 heterodimers are shown in Table 7. […] None of the mAbs bound to CD94 homodimer (data not shown).

In test [10] the target is T4, cynomolgus NKG2A and cynomolgus CD94 …. Put plainly: blocking of PE-conjugated HLA-E pentamer binding to transiently transfected CHO-S cells, flow cytometry (percentage binding) [panel B cNKG2A]. As for the experimental part:
as §4

For test [11], the target named is T1, I225M. The experiment in a line: flow cytometry, CHO-S cells transiently transfected with NKG2A variant and CD94, AF647 goat anti-human IgG secondary (MFI) [cont.), panel 24135]. How it is done:
as §1

The target in test [12] is T2, human NKG2A and human CD94 expressed on …. The description is as above. How it is done: as §1
The target in test [13] is T1, I225M. Put plainly: flow cytometry, CHO-S cells transiently transfected with NKG2A variant and CD94, AF647 goat anti-human IgG secondary (MFI) [cont.), panel 24208]. How it is done: as §1

T1 sequence (P26715 whole entry I225M): as the sequence (P26715 whole entry I168S) above, with S168I, I225M counted along it
NKG2A on primary human NK cells, sequence (P26715 whole entry): as the sequence (P26715 whole entry I168S) above, with S168I counted along it

B1: BMS-NKG2A.11 (antibody, human IgG1, kappa, V domains shown)
VH: EVQLVESGGGLVKPGGSLRLSCAASGFTFSSHSMNWVRQAPGKGLEWVSAISSSSSYIYYADSVKGRFTISRDNAKNSLYLQMNSLRAEDTAVYYCAREEWGLPFDYWGQGTLVTVSS
VL: AIQLTQSPSSLSASVGDRVTITCRASQGIPSALAWYQQKPGKAPKLLIYDASSLKSGVPSRFSGSGSGTDFTLTISSLQPEDFATYYCQQFNSYPLTFGQGTRLEIKR
As to B1, the “EC50 (ug/mL) of induced NK cell cytotoxicity, median (n = 6)” value in test [1] was 0.71 µg/mL.

B2: antibody 23765 (antibody, human IgG1, kappa, L234A L235A, V domains shown)
VH: EVQLVESGGGLVKPGGSLRLSCAASGFTFSCCRMNWVRQAPGKGLEWVSSISSSSSYIYYADSVKGRFTISRDNAKNSLYLQMNSLRAEDTAVYYCARDGWNDVFDYWGQGTLVTVSS
VL: EIVLTQSPATLSLSPGERATLSCRASQSVSSYLAWYQQKPGQAPRLLIYDASNRATGIPARFSGSGSGTDFTLTISSLEPEDFAVYYCQQRSNWPLTFGGGTKVEIKR
notes: Fully human IgG1-LALA (L234A/L235A), kappa
Regarding B2, the “EC50 (read off the curve)” value is ~0.01 µg/mL with I225M [2]; ~0.01 µg/mL in test [3]; ~0.01 µg/mL with I168S; ~0.02 µg/mL in [4]; ~0.04 µg/mL in test [5]. The Kd in test [6] was found to be 15 nM; in [7] it was 717 nM. For the same molecule, the koff in test [6] was 0.0013 s⁻¹; in test [7] it was 0.00156 s⁻¹. For the same molecule, the kon in test [6] is 88000 M⁻¹ s⁻¹; in test [7] it was 2180 M⁻¹ s⁻¹. In addition, the “IC50 (read off the curve)” value in [8] was ~0.6 µg/mL.

B3: antibody 24135 (antibody, human IgG1, kappa, L234A L235A, V domains shown)
VH: QVQLQESGPGLVKPSETLSLTCTVSGGSVSSGHYYWSWIRQPPGKGLEWIGYIYYSGSTTYNPSLKSRVSISVDTSKHQFSLKLSSVTAADTAVYYCARWAGSYQPYYYYYGMDVWGQGTTVTVSS
VL: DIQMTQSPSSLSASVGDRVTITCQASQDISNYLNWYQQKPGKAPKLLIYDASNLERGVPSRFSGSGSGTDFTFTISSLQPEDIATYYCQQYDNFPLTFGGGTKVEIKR
notes: Fully human IgG1-LALA (L234A/L235A), kappa; also called mAb 24135
In the case of B3, the “EC50 (read off the curve)” value in test [9] was ~0.02 µg/mL; with I225M [11], ~0.006 µg/mL; in test [12] it was ~0.005 µg/mL. In addition, the binding result with CD94 homodimer is listed as “no binding”; in test [10] it was “no binding (tested: 10000 ng/ml)”. Moreover, the Kd stood at 3.7 nM in test [6] and 147 nM in test [7]. The results for the koff in test [6] and in test [7] were 0.0013 s⁻¹ and 0.00098 s⁻¹, respectively. For the same molecule, the results for the kon in test [6] and in [7] were 340000 M⁻¹ s⁻¹ and 6700 M⁻¹ s⁻¹, respectively.

B4: antibody 24208 (antibody, human IgG1, kappa, L234A L235A, V domains shown)
VH: QVQLVESGGGLVKPGGSLRLSCAASGFTFSDYYMRWIRQAPGKGLEWVSHISTSGSTIYYADSVKGRFTISRDNAKNSLYLQMNSLRAEDTAVYYCARDHYYSRGVIGYWGQGTLVTVSS
VL: DIQMTQSPSSVSASVGDRVTITCRASQGISSWLAWYQQKPGKAPKLLIYAASSLQSGVPSRFSGSGSGTDFTLTISSLQPEDFATYYCQQANSFPYTFGQGTKLEIKR
notes: Fully human IgG1-LALA (L234A/L235A), kappa; also called mAb 24208; 24208 (IgG1 LALA)
As for B4, the “EC50 (read off the curve)” value with I225M [13] is ~0.004 µg/mL. The binding result with CD94 homodimer is “no binding”; in test [10], “no binding (tested: 10000 ng/ml)”. Also, the “EC50 (ug/mL) of induced NK cell cytotoxicity, median (n = 19)” value in test [1] came out at 0.19 µg/mL.

B5: BMS-NKG2A.9 (antibody, human IgG1, kappa, V domains shown)
VH: EVQLVESGGGLVKPGGSLRLSCAASGFTFSSHSMNWVRQAPGKGLEWVSAISSSSSYIYYADSVKGRFTISRDNAKNSLYLQMNSLRAEDTAVYYCAREEWGLPFDYWGQGTLVTVSS
VL: AIQLTQSPSSLSASVGDRVTITCRASQGISSALAWYQQKPGKAPKLLIYDASSLKSGVPSRFSGSGSGTDFTLTISSLQPEDFATYYCQQFNSYPLTFGQGTRLEIKR
Take B5: the “EC50 (ug/mL) of induced NK cell cytotoxicity, median (n = 7)” value in test [1] turned out to be 1.07 µg/mL.
